Source: the RNAGym collection of RNA variant scans (doi:10.1073/pnas.2313332121)
Fewer inactive variants are shown than the library holds.

B1: TPR 5TU (parent)
chain: GGAUCUUCUCGAUCUAACAAAAAAGACAAAUCUGCCACAAAGCUUGAGAGCAUCUUCGGAUGCAGAGGCGGCAGCCUUCGGUGGCGCGAUAGCGCCAACGUUCUCAACUAUGACACGCAAAACGCGUGCUCCGUUGAAUGGAGUUUAUCAUG

Variants of: B1
Assay: polymerase ribozyme fitness, log enrichment relative to wild type (log ratio); higher = more active; in vitro selection for triplet polymerase activity
Summary of the method: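 A single round of triplicate in vitro selection, including frozen incubation at −7 °C, was applied to PCR-built, transcribed mutant libraries of each subunit of a heterodimeric triplet polymerase ribozyme. Illumina sequencing of input and output libraries retained genotypes with ≥10 input reads and ≥1 read per output. Fitness is the base-2 logarithm of genotype enrichment divided by wild-type enrichment, from inverse-variance-weighted replicate averages.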

| Variant | polymerase ribozyme fitness (log ratio) |
| --- | --- |
| C35A A60C U102G | ≤ -4.2 |
| G34U A37G G50U A89C G92A A138U | ≤ -4.2 |
| G34A C85A G133A | ≤ -4.2 |
| C32G G50A U61A G62C G71A A91U G94C A138C | ≤ -4.2 |
| C32G G50C C51U G88A A110G | -4.19 |
| U31C G70A A98G G124C | ≤ -4.2 |
| U33G A49U A91G G152A | ≤ -4.2 |
| A30G C85U G128A | ≤ -4.2 |
| U31G G84A A89G | -0.747 |
| A30G A41U C69G C76U G94U U102G U130C | ≤ -4.2 |
| C32U C96G | -1.58 |
| U33G A39G G62U G92A A122U U134A | ≤ -4.2 |
| G34A G46A C76G G136A U144A | ≤ -4.2 |
| C32G G59A G83A A98C A110G | -4.09 |
| G34A C85U A147C U148G G152U | ≤ -4.2 |
| C32G C35U C72G A106C | ≤ -4.2 |
| U31A A39G G94U | -2.07 |
| U31G C54A G88A G126A G141A | ≤ -4.2 |
| U33C C36U U56A G84U U90C A110C G143C | ≤ -4.2 |
| C32A G67A G83A | ≤ -4.2 |
| A30U U56A G59A G94U C125A U127A U144A | ≤ -4.2 |

| Variant | polymerase ribozyme fitness (log ratio) |
| --- | --- |
| U31C U44A G94C C96G U102G U151C | ≤ -4.2 |
| U31C C93G | -3.06 |
| G34C G50U C54A G94U C99U | ≤ -4.2 |
| G34U C99G A106U U127A C132U U139C | ≤ -4.2 |
| A30U U134C | -3.45 |
| C32G G42U U55A U61A C85A C95A A107U | ≤ -4.2 |
| U31C G71A G86C C118A U151G | ≤ -4.2 |
| U31A C75G C76G C96A U145G | ≤ -4.2 |
| U31G U61A A66G U90C U101C | ≤ -4.2 |
| C32U A37G G46U U77C G86C A115G A119U | ≤ -4.2 |
| U31A C54A G84U C85U | -2.6 |
| C32U A52C U55G C118U | ≤ -4.2 |
| C32U G59A | -1.99 |
| A30G C87A A91C A110U A115U U135C | ≤ -4.2 |
| U33A U56A G94A | ≤ -4.2 |
| U31C A41G A66C G68C C95G | ≤ -4.2 |
| U31A G70A C76A C96U | ≤ -4.2 |
| A30G A47G U56A G71C G117U A150U | ≤ -4.2 |
| G34C C75A G94A C108G U130A | ≤ -4.2 |
| U31A C93U | 0.0654 |
| U33C A122G U127G | ≤ -4.2 |

| Variant | polymerase ribozyme fitness (log ratio) |
| --- | --- |
| A30G C32A C43A C93A C105A | ≤ -4.2 |
| C32G U56A C57A C114G | -4.19 |
| U31G C57G G88U | ≤ -4.2 |
| A30G G50U U55G U82A | ≤ -4.2 |
| G34U U55A A91G G94U | ≤ -4.2 |
| C32G G59C A66G U102A | ≤ -4.2 |
| U31A C96U C99A | -1.23 |
| C35A A47U C57U U101A C114G C123U | ≤ -4.2 |
| C32U A37U U56C C95U U145G U148G | ≤ -4.2 |
| A30G C79U G124U U135A | ≤ -4.2 |
| C32U G68A C85A G94A U139A A147C | ≤ -4.2 |
| C32U U55A | -1.62 |
| C32U U55G | -1.52 |
| U33C C51U G59C C63A A120C C125G U134G | ≤ -4.2 |
| C32A C51G C72U C85G A97C U101G | ≤ -4.2 |
| A30G G50C C76U C103G | ≤ -4.2 |
| U31G A52C G83A | -2.81 |
| C32U C87G A142U | ≤ -4.2 |
| U33A C72U A73G G124U | -3.23 |
| U31A G58C G74C U139C U146A | ≤ -4.2 |
| U33G C95U | -2.22 |

| Variant | polymerase ribozyme fitness (log ratio) |
| --- | --- |
| U33G A41C C43U G50A G152U | -4.07 |
| C32U G59C G84A | -1.81 |
| U31C C93U A120G | 0.174 |
| U33A A115G U139G | ≤ -4.2 |
| U31A A91G U144G | -1.84 |
| U33A G50A U53A C85G C96G A97U C114G U139A | ≤ -4.2 |
| U33G G50C U56A U134G U145C | ≤ -4.2 |
| C32G C87A A115C | ≤ -4.2 |
| C32G G42A U77C G84U | ≤ -4.2 |
| A30G U82G A122G U146G | -4.18 |
| U31A A66C G67C G88A G141A U146G | ≤ -4.2 |
| G34U A47G C57G G68A U102A | ≤ -4.2 |
| A30U U56G U82C G84U C95U | ≤ -4.2 |
| A30G A41C | -3.51 |
| C32G C87G C93U C99G U104A C123U | ≤ -4.2 |
| C32G G50U C79G G88U G94C U101C C125A | ≤ -4.2 |
| U31G A39G U55A A66C G68C C69U G117A | ≤ -4.2 |
| A30U A49G | ≤ -4.2 |
| U31A U55A C95U G128U A137C G143U | ≤ -4.2 |
| C32A A37C | ≤ -4.2 |
| U33A G83A C95U U151C | ≤ -4.2 |
